Common to all, as to experiment: cell-based or functional assay
In test [1] the target is TNP-BSA conjugate (trinitrophenyl hapten conjugated to bovine serum albumin) (bovine) (UniProt P02769).
Test [2] has as its target Human Somatostain Receptor 2 (SSTR2), c-myc tagged with viral glycosilation sequence, on RBL-2H3 cells (human) (UniProt P30874).
Test [3] addresses Human Interleukin 8 Receptor (hIL8RA), on RBL-2H3 cells with human granzyme A (Sensor A) (human) (UniProt P25024).
Test [4] has as its target Human Bradykinin Receptor B1 (BDKRB1), c-myc tagged with viral glycosilation sequence, on RBL-2H3 cells (human) (UniProt P46663).
The target of test [5] is mutated human procaspase-3 (mut-huCasp3), amino acids 172 to 179 changed from IETDSGVD to IEPDVLME (human) (UniProt P42574).
Test [6] addresses T1, human native unmodified procaspase-3 (huCasp3) (human) (UniProt P42574).
T1 sequence (looked up): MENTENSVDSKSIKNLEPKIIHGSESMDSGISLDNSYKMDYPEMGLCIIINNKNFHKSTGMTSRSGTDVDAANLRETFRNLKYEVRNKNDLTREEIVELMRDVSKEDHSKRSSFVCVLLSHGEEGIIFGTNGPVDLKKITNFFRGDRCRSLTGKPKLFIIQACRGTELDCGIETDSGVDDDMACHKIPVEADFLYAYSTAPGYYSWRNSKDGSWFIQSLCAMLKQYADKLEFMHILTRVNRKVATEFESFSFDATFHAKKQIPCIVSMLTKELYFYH

The results in this text go back to patent publication US20130203078A1.

Human Bradykinin Receptor B1 (BDKRB1), c-myc tagged with viral glycosilation sequence, on RBL-2H3 cells (human), sequence (P46663 other isoform, or with tags, fused parts or gaps): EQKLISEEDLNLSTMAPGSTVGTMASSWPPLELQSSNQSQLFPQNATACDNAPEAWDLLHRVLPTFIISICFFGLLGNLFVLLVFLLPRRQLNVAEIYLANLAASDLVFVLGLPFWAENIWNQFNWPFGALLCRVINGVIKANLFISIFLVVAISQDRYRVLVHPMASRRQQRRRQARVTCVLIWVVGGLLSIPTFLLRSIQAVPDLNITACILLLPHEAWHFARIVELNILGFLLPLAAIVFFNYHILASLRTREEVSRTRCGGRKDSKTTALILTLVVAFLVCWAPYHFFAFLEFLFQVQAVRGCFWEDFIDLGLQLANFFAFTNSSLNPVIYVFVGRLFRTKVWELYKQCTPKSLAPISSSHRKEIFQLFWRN
Human IL8, sequence (P10145 28-99 limits assumed): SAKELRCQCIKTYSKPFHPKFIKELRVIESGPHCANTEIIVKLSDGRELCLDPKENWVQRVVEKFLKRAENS
Human Interleukin 8 Receptor (hIL8RA), on RBL-2H3 cells with human granzyme A (Sensor A) (human), sequence (P25024 other isoform, or with tags, fused parts or gaps, form in doubt): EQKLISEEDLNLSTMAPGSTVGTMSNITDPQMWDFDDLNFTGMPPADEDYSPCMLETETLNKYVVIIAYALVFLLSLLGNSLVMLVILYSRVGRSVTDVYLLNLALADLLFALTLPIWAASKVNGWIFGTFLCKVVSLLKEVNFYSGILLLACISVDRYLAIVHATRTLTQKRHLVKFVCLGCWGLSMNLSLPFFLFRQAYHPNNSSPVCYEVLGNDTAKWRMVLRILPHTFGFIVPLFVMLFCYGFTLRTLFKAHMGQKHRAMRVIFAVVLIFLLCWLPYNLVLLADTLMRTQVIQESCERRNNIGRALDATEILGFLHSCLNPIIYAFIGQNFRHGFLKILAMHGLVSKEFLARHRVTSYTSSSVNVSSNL
Human Somatostain Receptor 2 (SSTR2), c-myc tagged with viral glycosilation sequence, on RBL-2H3 cells (human), sequence (P30874 other isoform, or with tags, fused parts or gaps): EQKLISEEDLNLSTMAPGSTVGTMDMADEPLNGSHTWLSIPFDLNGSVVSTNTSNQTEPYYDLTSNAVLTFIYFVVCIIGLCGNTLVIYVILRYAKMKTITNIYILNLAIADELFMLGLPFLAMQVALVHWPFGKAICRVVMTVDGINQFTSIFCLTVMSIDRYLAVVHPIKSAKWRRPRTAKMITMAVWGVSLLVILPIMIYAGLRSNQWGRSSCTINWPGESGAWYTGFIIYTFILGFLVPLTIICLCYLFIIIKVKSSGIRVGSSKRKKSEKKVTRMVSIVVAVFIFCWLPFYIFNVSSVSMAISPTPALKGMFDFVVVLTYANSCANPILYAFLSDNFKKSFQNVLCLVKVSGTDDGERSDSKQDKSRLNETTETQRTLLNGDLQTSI

As to “mouse IgE monoclonal antibody against trinitrophenyl hapten from IgELb4 hybridoma (ATCC TIB-141)”, in test [1], the Fluorescence after 30 minutes at 37 C (released granzyme B, FRET substrate), TNP-BSA 1 pg/mL was 35900 fluorescence; the Fluorescence after 30 minutes at 37 C (released granzyme B, FRET substrate), TNP-BSA 1 ng/mL was determined as 34600 fluorescence; the Fluorescence after 30 minutes at 37 C (released granzyme B, FRET substrate), TNP-BSA 1 ug/mL is 30900 fluorescence; the Fluorescence after 30 minutes at 37 C (released granzyme B, FRET substrate), TNP-BSA 1 fg/mL was found to be 29800 fluorescence. Besides, the limit of detection for TNP-BSA in test [1] was 0.1 ag/mL.
In test [2], seglitide (peptide) showed an Absorbance at maximal dilution of ELISA tested (human granzyme B sandwich ELISA of supernatant, dilution 2250, after subtraction of 0.2 blank) of 2.4 absorbance and a Sensitivity (minimal amount of cells needed) of under 150 cells.
In the case of “Human IL8 (from UniProt P10145 28-99) (ligand)”, in test [3], the Signal to background at 30 min (released granzyme A activity; condition 2: Sensor A alone, IL8 10 uM) worked out at 16; the Signal to background at 30 min (released granzyme A activity; condition 5: Sensor A mixed with Sensor B, IL8 10 uM and carbachol 10 uM) amounted to 12.5.
Regarding “kallinin (from UniProt P01042 380-389) (peptide)”, in test [4], the Absorbance at maximal dilution of ELISA tested (human granzyme B sandwich ELISA of supernatant, dilution 2250, after subtraction of 0.2 blank) stood at 0.8 absorbance; the Sensitivity (minimal amount of cells needed) is under 150 cells; the exocytosis of granzyme B, percent of maximal at 5 minutes was over 90%; the signal to background (S/B) of released granzyme B activity, medium taken at 5 to 15 minutes fell in the range of 20 to 22. Moreover, in test [4], the signal to background (S/B) of released granzyme B activity, medium taken at 30 minutes was in the range of 15 to 17 and the signal to background (S/B) of released granzyme B activity, medium taken at 60 minutes is 8 to 10.
As for “human granzyme B secreted by stably transfected RBL-2H3 cells (from UniProt P10144 21-247) (enzyme)”, the Signal to Background (S/B), caspase-3 treated with granzyme B against caspase-3 only is 77 in test [5] and 2.8 in test [6]. Besides, the signal to background, supernatant equivalent to 5.000 cells, 384 well plate in test [5] is over 20.
